From US20120058118A1 (Boehringer Ingelheim, published 2012)
Ends that are not written are not given here. * marks the point of attachment. Biotin = O=C1N[C@H]2[C@H](CS[C@H]2CCCCC(=O)*)N1

T1: A-beta(12-28) peptide (human)
T1 construct: Bachem peptide captured on streptavidin chip; also called monomeric A-beta(12-28); central region
T1 peptide: Biotin-VHHQKLVFFAEDVGSNK


What was measured:
[1] = molecular target: T2, human A-beta(1-40) peptide, monomeric (BAM) (human, biotin at the C-terminus in capture ELISA, SPR and TR-FRET; not biotinylated where coated directly (Example 7)); test: TR-FRET competition, labelled ABII60A10; extrapolated curve
T2 construct: synthetic peptide (Anaspec), TFA/HFIP treated to give monomer; also called monomeric A-beta

[2] = molecular target: T2, human A-beta(1-40) peptide, monomeric …; test: BAM ELISA
[3] = molecular target: T3, aggregated A-beta(1-40) peptide (BAA) (human); test: BAA ELISA
T3 construct: also called A-beta peptide aggregates

[4] = molecular target: T1, A-beta(12-28) peptide; test: SPR on captured A-beta(12-28)
Description: After capturing, surfaces are blocked by injecting an excess (200 μg/ml) of d-biotin for 180 s at 5 μl/min. A reference surface is washed and blocked with d-biotin. HBS-EP+buffer is used as the running buffer and experiments are performed at 25° C. For off-rate screening, periplasmic extracts of VHHs are injected at a 10-fold dilution for 2 min at 45 μl/min and are allowed to dissociate for 10 min. […] Between different VHH samples, the surfaces are regenerated with regeneration buffer (50 mM NaOH) for 25 s at 45 μl/min followed by 10 s 6M GuHCl at 45 μl/min if regeneration is incomplete. […] Data are double referenced by subtraction of the curves on the reference channel and of a blank running buffer injection. Sensorgrams are evaluated by fitting a 1:1 dissociation model using the Biacore T100 Evaluation software v1.1.1.

[5] = molecular target: T2, human A-beta(1-40) peptide, monomeric …; test: cell-based or functional assay
[6] = molecular target: T2, human A-beta(1-40) peptide, monomeric …; test: ABII002 TR-FRET competition assay
[7] = molecular target: T2, human A-beta(1-40) peptide, monomeric …; test: ABII050 TR-FRET competition assay

| Binder | IC50 [1] [nM] | EC50 [2] [nM] | EC50 [3] [nM] | binding result [4] | inhibition of peptide aggregation (ThT fluorescence), 28 µM VHH [5] [%] | IC50 [6] [nM] | IC50 [7] [nM] |
| --- | --- | --- | --- | --- | --- | --- | --- |
| ABII42E10 (VHH) VHH: EVQLVESGGGLVQPGGSLRLSCAASGLTFTLYTMGWFRQAPGKEREFVAAISASGGTTYYADSVKGRFALSRDNAKNTVFLQMNTLKPEDTAEYLCAAAFRGFAINTPTSYNYWGQGTQVTVSS | 205 | 17.5 | 2.6 | binds | 75 |  |  |
| ABII059-27GS-ABII035-MSA (designed binder, built from the printed name; not shown: mouse serum albumin) EVQLLESGGGLVQPGGSLRLSCAASGRTFNNYNMGWFRQAPGKGREFVAAVSRSGVSTYYADSVKGRFTISRDNSKNTVYLQMNSLRPEDTAVYYCAAAYRGTAINVRRSYSSWGQGTLVTVSSGGGSGGGGSGGGGSGGGGSGGGGSGGGEVQLLESGGGLVQPGGSLRLSCVHSGPTFRTDTMGWFRQAPGKGREFVAAVTWNSGRINYADSVKGRFTISRDNSKNTAYLQMNSLRPEDTAVYYCAAHRFVVGGNRVEDWRYWGQGTLVTVSS |  |  |  |  |  | 0.19 | 0.18 |
| ABII42F5 (VHH) VHH: EVQLVESGGGLVQAGDSLRLSCTASGRTFTDYNIGWFCQAPGKEREFVAAISGSGGSTYYADSAKGRFTISRDNAKNTVYLQMNSLKPEDTAVYACAAAQRRLAVNVDTSYNVWGQGTQVTVSS | 228 | 41.1 | 20 | binds | 79 |  |  |
| ABII35D2 (VHH) VHH: EVQLVESGGGLVQAGGSLRLSCVASGLTFSSYNMGWFRQAPGKEREFVAAISRSGGSTYYTDSVKGRFTISRDSSKNTVYLQMNSLKPEDTADYYCAAALFGSAINLLSEYRYWGQGTQVTVSS | 773 | 37.5 | 12.8 | binds | 73 |  |  |
| ABII1E11 (VHH) VHH: EVQLVESGGGLVQPGGSLRLSCAASGRTFSDYNMGWFHQAPGKEREIVAAISRSGRSTYYTVSVEGRFTISRDNAKNTVDLEMNSLKPEDTGIYYCAANSAGRAINLPLYKYWGQGTQVTVSS | 844 | 27.3 | 19.2 | binds |  |  |  |
| ABII323-PEG40 (designed binder, PEG40 on the Cys at position 15 of the 35GS linker, 059-35GSC-035) VQLLESGGGLVQPGGSLRLSCAASGRTFNNYNMGWFRQAPGKGREFVAAVSRSGVSTYYADSVKGRFTISRDNSKNTVYLQMNSLRPEDTAVYYCAAAYRGTAINVRRSYSSWGQGTLVTVSSGGGGSGGGGSGGGGCGGGGSGGGGSGGGGSGGGGSEVQLLESGGGLVQPGGSLRLSCVHSGPTFRTDTMGWFRQAPGKGREFVAAVTWNSGRINYADSVKGRFTISRDNSKNTAYLQMNSLRPEDTAVYYCAAHRFVVGGNRVEDWRYWGQGTLVTVSS |  |  |  |  |  | 0.18 | 0.2 |
| ABII35G2 (VHH) VHH: EVQLVESGGGLVQAGGSLRLSCVASGRTFSNYGMGWFRQAPGKDREFVAAISRSGGTTYYEDDVKGRFTISRDNAKNSVYLQMNSLKPEDTAVYYCAARPSYVAVNIAASYNNWGQGTQVTVSS | 645 | 10.7 | 5.4 | binds | 76 |  |  |
| ABII35C7 (VHH) VHH: EVQLVESGGGLVQPGGSLRLSCAASGRTFSIYNMGWFRQAPGKEREFVAAISRSGSSTYYGDSVKGRFTISRDNAKKTVYLQMNSLKPEDTAVYHCAAARFGTPINTRGSYDYWGQGTQVTVSS | 206 | 1.9 | 1.3 | binds | 82 |  |  |
